Measurements published in article PMC3985721.

How the values were obtained:
Assay in all cases: native MS
[1] = molecular target: human soluble guanylate cyclase α subunit catalytic domain, αGC(466–690) (human) (UniProt Q02108)
[2] = molecular target: human soluble guanylate cyclase β subunit catalytic domain, wild type, βGC(407–626) (UniProt Q02153)
[3] = molecular target: human soluble guanylate cyclase α subunit catalytic domain, truncated αGC(466–662) (human) (UniProt Q02108)

UniProt Q02153, sequence (Q02153 whole entry, looked up, the tested form may be a part): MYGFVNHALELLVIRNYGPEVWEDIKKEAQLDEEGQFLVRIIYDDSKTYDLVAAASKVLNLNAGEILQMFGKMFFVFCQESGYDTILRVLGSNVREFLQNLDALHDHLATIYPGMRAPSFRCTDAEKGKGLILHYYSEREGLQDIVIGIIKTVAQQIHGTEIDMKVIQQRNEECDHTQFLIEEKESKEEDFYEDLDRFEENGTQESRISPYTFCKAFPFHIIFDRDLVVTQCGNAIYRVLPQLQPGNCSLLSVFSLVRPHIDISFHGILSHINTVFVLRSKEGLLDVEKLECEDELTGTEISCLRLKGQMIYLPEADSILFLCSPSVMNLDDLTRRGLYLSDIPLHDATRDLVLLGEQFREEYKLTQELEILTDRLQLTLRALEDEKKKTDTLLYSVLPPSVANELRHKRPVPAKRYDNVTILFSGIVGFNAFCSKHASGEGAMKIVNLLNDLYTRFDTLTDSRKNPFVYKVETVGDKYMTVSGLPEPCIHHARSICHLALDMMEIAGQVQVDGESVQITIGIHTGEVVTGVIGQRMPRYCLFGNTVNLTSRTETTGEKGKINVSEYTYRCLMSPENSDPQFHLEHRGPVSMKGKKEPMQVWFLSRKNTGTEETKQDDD

## human soluble guanylate cyclase α subunit catalytic domain, αGC(466–690) (from UniProt Q02108 466-690) (domain or fragment)
[1]
  stoichiometry N: 2

## human soluble guanylate cyclase α subunit catalytic domain, shorter construct αGC661 (residues 466–661)
[2]
  relative abundance of the heterodimer (%): 82.5%

## human soluble guanylate cyclase α subunit catalytic domain, truncated αGC(466–662) (from UniProt Q02108 466-662) (domain or fragment)
[3]
  stoichiometry N: 2
